CN111234012A

Target: HBV病毒 (HepAD38细胞上清制备的HBV病毒液)
Test: cell-based or functional assay

Substance: 乙肝免疫球蛋白 (HBIG) (antibody)
- HBV neutralisation on HepG2-NTCP cells, HBeAg in supernatant (IC50): 15 µg/mL
